According to the supplement of paper PMC12042874:
± gives the uncertainty stated by the source.

Test: amyloid nucleation score (Sup35N fusion, yeast selection) (log enrichment); library NNK2; higher = more nucleation; inactive = no reads after selection
Outline: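 Nucleation score: DiMSum log enrichment of output over input reads, centred on the mode score of non-aggregating sequences. Only sequences with at least 100 input reads were kept. Reads came from Illumina sequencing of plasmid inserts before and after 7 days of growth at 30°C without adenine and uracil, in psi-negative yeast expressing Sup35N fused to peptides of 20 random codons after 24 hours of induction with 100 μM copper sulfate.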

| Substance | amyloid nucleation score |
| --- | --- |
| PFYTYSKYKCTKFTDNYYAQ | -1.02 ± 1.1 |
| PGAADRTVRYGSRRPPD | -0.003 ± 0.41 |
| PGILRTFVETEYCITI | inactive |
| PGRRDSHVRAYQEGVVESVS | 0.051 ± 0.49 |
| PGSAIRVVSMRLWGRRRSAG | 0.458 ± 0.45 |
| PGSMPRRMSRCWSIGLDGEE | 1.3 ± 0.32 |
| PGSNL | -0.037 ± 0.42 |
| PHNYLYSFFRRIYYRIGCLN | -0.461 ± 0.3 |
| PHQKSAY | -0.284 ± 0.79 |
| PHRKV | -0.536 ± 0.76 |
| PHSRNRFLMFA | -0.488 ± 1 |
| PIFYSPLAFMLRMYHNG | -0.998 ± 0.38 |
| PIKCDRSFWRR | 1.49 ± 0.22 |
| PIMCKGNLTDFTFYCFCKFD | 6.6 ± 0.067 |
| PKFTMVPNNGMQVGIARNKW | 0.43 ± 0.29 |
| PKRFVLGY | -1.55 ± 0.62 |
| PLFTINRVVMPNINVETFAG | -0.522 ± 0.39 |
| PLGSNACPTHFSCD | inactive |
| PLITDFLAGMLSPENVSVPQ | 0.883 ± 0.51 |
| PLLSVVYTNLRSSDGRVV | 1.54 ± 0.31 |
| PLQPTQTYPFNSVFDGHKRV | inactive |
| PLVTCHDDEVQGMKFVSFFI | -0.451 ± 0.76 |
| PMDEWHSFPLQNKLRVIGCG | 0.115 ± 0.23 |
| PMNFYYIAPNICGLREKLWS | 3.62 ± 0.064 |
| PNVAIYIPTGYGLTVTPPAS | -1.02 ± 0.76 |

| Substance | amyloid nucleation score |
| --- | --- |
| PQRLWISISAHTLKFPHL | 3.77 ± 0.073 |
| PQWEKRFKYTNEWAATFNGL | inactive |
| PRLCDECPSCVDLSGVWNPY | inactive |
| PRPFGKNWVKKDLNCLHKLN | -0.251 ± 0.35 |
| PRPVLAAALAKPLGTS | 0.87 ± 0.23 |
| PRTISSSRLMWRYVSYLVIV | inactive |
| PRVGRRGSLRKCPWLLWYVL | 0.052 ± 0.45 |
| PRWGRTMGCFSFRDPCRVTG | -0.277 ± 0.35 |
| PSIDSCRGRLVVRVQIRVEN | -1.24 ± 1.1 |
| PSLMNEVRMGVQCLLFST | 0.108 ± 0.23 |
| PSRLRYITICRVPGAMSDVN | 0.268 ± 0.27 |
| PSRYAVLLCFGGVDTNVGIT | 4.967 ± 0.049 |
| PSSVKWTRSPGMRTTNGEVC | 1.36 ± 0.23 |
| PSTIGRMVVLACWSDICRRG | 8.88 ± 0.059 |
| PSWDDFSSPEVS | -0.524 ± 0.39 |
| PTGPNSGNCIVLCPSDKSHE | -0.363 ± 1.1 |
| PTGYILESTYFTGQGKCAGL | -0.255 ± 1.1 |
| PTLHMGMPN | -0.013 ± 0.79 |
| PTMFNFKIYQIVRVGLPIHL | -1.53 ± 0.76 |
| PTSNLSWVT | 1.71 ± 0.17 |
| PVCCFAHMIIHYNCLGQKAY | 2.08 ± 0.12 |
| PVGWSNRFRTMLPDS | 0.861 ± 0.48 |
| PVHSAVATVLTLVNGKIGGA | 1.24 ± 0.48 |
| PVIRRLEFGWQNASYG | -0.564 ± 0.76 |
| PVKTNFCENINYFIVPGFAL | inactive |

| Substance | amyloid nucleation score |
| --- | --- |
| PVLYFLGLSMVDNTITRSTA | -0.763 ± 0.34 |
| PVMDNLFSKAFVG | -0.741 ± 0.5 |
| PVNRQNFFSCD | -1.67 ± 0.62 |
| PVYSSFYCCYVWHRNFRKYT | -0.975 ± 0.29 |
| PWACIIYRLQGSPLINSRFN | 1.04 ± 0.12 |
| PWCESLCVRRGAESVSTWVK | 1.2 ± 0.22 |
| PYGVSPWVRVVSCSIEGNWT | -0.289 ± 0.25 |
| PYMPGRMWSRILSVCSVCCV | 1.48 ± 0.58 |
| QCFDFTD | 1.1 ± 0.38 |
| QCLQCGP | -0.553 ± 0.49 |
| QCYVIYS | 4.513 ± 0.029 |
| QDEHIMVIVKLRRYTFNWEL | 2.86 ± 0.11 |
| QELIK | 0.574 ± 0.44 |
| QEYLLLVAAGKHVNVDKTYL | 0.594 ± 0.81 |
| QFCCVESLGLLALAWLFTGF | 3.62 ± 0.11 |
| QFDMEQFVQCPGTMSSRAVG | 5.04 ± 0.059 |
| QFGNVRLSS | 0.995 ± 0.53 |
| QFRPLDCCLLNFDDSRIYCL | 4.88 ± 0.074 |
| QFVNQRSYKGSLTFFMIRGR | inactive |
| QGGMMWGLLSYCEVLDDSDV | -0.08 ± 1 |
| QGHISHTGLIPMLGGSL | 3.23 ± 0.15 |
| QGLFLLSCPSSN | 2.54 ± 0.11 |
| QGNSETGGNMCYDASCWLYG | -0.064 ± 0.45 |
| QGTRAYQSKALTVSIMLMLV | 3.45 ± 0.096 |
| QGVSVLFGVSATLY | 1.19 ± 0.26 |

| Substance | amyloid nucleation score |
| --- | --- |
| QIELGALNNRCGNRDGSGDW | -0.842 ± 0.35 |
| QIFLIKIGAFVLLLTVQ | -1.34 ± 0.54 |
| QIFSECRTYDFVLPGYMGYY | inactive |
| QIFVR | 0.689 ± 0.55 |
| QINSHNWYDG | 0.369 ± 0.8 |
| QIQVLGWSRKSLMDNKL | inactive |
| QKNTSQCFVLSW | 0.129 ± 0.49 |
| QLICTMNFVAEYNWSALRRN | 4.55 ± 0.12 |
| QLNDWSYMVKFSAV | -0.466 ± 0.64 |
| QLVLKVRLWVDGLYVLEWGW | -0.042 ± 0.49 |
| QLYRCPFCHGGALSYYIRKV | inactive |
| QNLASIDLDYFFSEYYPLLA | -1.37 ± 0.42 |
| QNMNLVHEIGMNRSLVFTFW | -0.167 ± 0.29 |
| QNRKERYVYIFRAEWFPWCG | -1.13 ± 0.76 |
| QNYARL | -1.22 ± 1.1 |
| QPSVL | 0.524 ± 0.81 |
| QQCLINVSSRLLAGVNACSM | 1.22 ± 0.34 |
| QQYSADLLRGYPCMSYVPVG | -0.091 ± 0.26 |
| QRAYVPQTLGVRISVSSRWQ | 3.41 ± 0.096 |
| QRCWRSGTFSGM | -0.107 ± 1 |
| QRSAKLRALPEGIKHKKWLM | -0.108 ± 1.1 |
| QSKFDTFGSFACTYRYFTAN | 0.698 ± 0.8 |
| QSLFFVI | -0.395 ± 0.48 |
| QSLHRGR | -0.311 ± 1.1 |
| QSMICTFFVLCLRSRYW | 4.46 ± 0.068 |

| Substance | amyloid nucleation score |
| --- | --- |
| QSMMSFMSRNVFRFFMGKVT | inactive |
| QSVNCYNVNSDVCNKVYNDL | 0.716 ± 0.42 |
| QVALGNVCNRLYTLMARQAN | -0.283 ± 0.26 |
| QVGFPWFGRQVKDYLLLYKP | 0.22 ± 0.4 |
| QVRELVVLNSMGYPSSW | -0.188 ± 0.41 |
| QWGSMVSCRCYRPPTEGPGW | -0.605 ± 0.76 |
| QWSFPAILRLDTNTSRYYFQ | -0.776 ± 1.1 |
| QYDIVPNVSGNYPNGIFKDR | inactive |
| QYFFNMMLMMDMLSLGGLSY | -0.063 ± 0.45 |
| QYLLIIMFRYYLYCGVQRNY | -0.121 ± 1.1 |
| QYLSALSSAISGGDVYMMSK | 5.15 ± 0.065 |
| QYNKCSMALVFCYCS | 8.26 ± 0.038 |
| QYSTFATNRVFSKAIMHLSG | -0.445 ± 0.36 |
| QYVEFPLMLTET | 0.025 ± 0.79 |
| QYVVNLFYPLYMEKKCWSSI | 6.288 ± 0.039 |
| QYYRN | 1.51 ± 0.58 |
| RADALIVTVARFTPPALVKV | 1.15 ± 0.68 |
| RADPVRVYSCVEVLGRALLG | inactive |
| RAFCVGSTYSSSGGQSLMRV | inactive |
| RAFRKAGMYSYLSG | 3 ± 0.056 |
| RAFYLVTSPDFYFCRILGAT | inactive |
| RAIDRRKVFARYVFWSFSWT | -0.141 ± 0.33 |
| RAQFIQLGDEYYTRC | 0.564 ± 0.49 |
| RASASNR | -0.559 ± 0.36 |
| RASMVDF | 0.108 ± 0.65 |

| Substance | amyloid nucleation score |
| --- | --- |
| RASVFF | inactive |
| RCFCG | 0.226 ± 0.35 |
| RCFGFRVVRFVV | 0.014 ± 0.2 |
| RCFSRNFEECFENAYTWV | -1.07 ± 0.33 |
| RCGFLWCRHFPATSELGCVL | 0.752 ± 0.8 |
| RCLLKLDQV | -0.509 ± 0.4 |
| RCMFDIYFVLVTCEQWCCLV | 0.099 ± 0.49 |
| RCTKA | 0.341 ± 0.21 |
| RCWAAHYVDTWACNSLAVII | 1.19 ± 0.68 |
| RDGKDRAYCGW | 0.483 ± 0.5 |
| RDMLRQMNSYQEYLFVRLDN | -0.763 ± 1.1 |
| RECIYFRFYSRWATLSFLNR | -0.368 ± 1 |
| RECNRNFQKSGSSEHETGLG | -0.844 ± 0.54 |
| REEGFS | -1.29 ± 0.54 |
| REFMNFWHWRVCICAQE | -0.501 ± 0.38 |
| REHSYLSIFLWMCAFVTNVE | -0.98 ± 1.1 |
| REKVPYT | -0.428 ± 0.48 |
| REKVVKEPRTDESFVGRGGS | 0.724 ± 0.28 |
| RESWLAGMSVYWANSGMSFA | -0.487 ± 0.36 |
| RETLAFA | -0.329 ± 0.33 |
| RFDCLTVLLVFESYHFKTAG | -0.392 ± 0.31 |
| RFDRTRCETKSRLVRIR | 0.084 ± 0.41 |
| RFDSDNTFDPGRWYSCSQDA | -0.346 ± 0.53 |
| RFEYLFLEEYKLLAMRYLRT | -0.986 ± 0.3 |
| RFFADLTMDQFNIFGGLWQG | 1.09 ± 0.3 |

| Substance | amyloid nucleation score |
| --- | --- |
| RFGSLVFFCTGFERSWHTSA | 0.684 ± 0.44 |
| RFLLQS | -0.39 ± 0.61 |
| RFMVFGNLYDERYTVRFLMR | 3.66 ± 0.089 |
| RFNIFVLLFLVPEVGLHMVV | inactive |
| RFNVLRIGPLSHLQGWEHPT | -0.632 ± 0.63 |
| RFRGGSKSGLYFIVCISDVW | -0.758 ± 0.44 |
| RFSDM | -0.126 ± 0.31 |
| RFSGASNLVESPIKWIVGAH | 4.96 ± 0.06 |
| RFSQRNPITVHGQSDTV | inactive |
| RFVVSEGLIGVVGSSKLILY | 0.106 ± 1 |
| RFVYMDIRDMAGWTPLYVYP | -1.23 ± 1 |
| RFVYMLVCIELVG | -0.953 ± 0.78 |
| RFWIEVEVYDVISFVYLERW | 0.428 ± 0.34 |
| RGINKTDIFVFELCVHDVCL | 2.58 ± 0.16 |
| RGKYAITCVMLWK | 5.769 ± 0.054 |
| RGQMRLQRRLPKLRTSGKLQ | 1.49 ± 0.34 |
| RGVLTSSLFPSKGRWVVGHW | 2.35 ± 0.075 |
| RHFHGGSSIAARAVTWAGQG | 1.5 ± 0.44 |
| RHNRC | -0.117 ± 0.79 |
| RHPGPAL | 0.857 ± 0.25 |
| RHTYVHYAHKVYLESFLGCG | 6.327 ± 0.04 |
